pEC50, pIC50, pKd: −log10 of the molar value. Read-outs that look alike come from different tables or passages of the source. Each block holds one molecule with its values, some of them ahead of it. Positions of bridges follow the written chain, without caps; N, C: chain ends. Non-standard residues stand in square brackets, D forms with d. No end group written: not given here.
Key:
[1] = test system: MCP-1 induced THP-1 migration; assay: THP-1 trans-well migration assay, MCP-1 as chemoattractant; type: cell-based, human; details: for pEC50: Homo sapiens
How it was run: (§1)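 5×10^4 THP-1 cells with serially diluted peptide in upper chamber, 5 µm filter, recombinant human chemokine 50 ng/ml (5.9 nM) in lower chamber. Incubated 4 h at 37 °C. Migrated cells counted by MTT staining, A595 read against a THP-1 standard curve.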

[2] = target: T1, short splice variant D2 dopamine receptor (Homo sapiens, UniProt P14416); assay: Dopamine receptor membrane binding (3H-Spiperone); details: 100 μM highest concentration tested; read-out: ED50 for competition of spiperone binding to short splice variant D2 dopamine receptor
T1 construct: purchased RBI/Sigma D-179
T1 sequence (P14416 1-414 isoform P14416-2): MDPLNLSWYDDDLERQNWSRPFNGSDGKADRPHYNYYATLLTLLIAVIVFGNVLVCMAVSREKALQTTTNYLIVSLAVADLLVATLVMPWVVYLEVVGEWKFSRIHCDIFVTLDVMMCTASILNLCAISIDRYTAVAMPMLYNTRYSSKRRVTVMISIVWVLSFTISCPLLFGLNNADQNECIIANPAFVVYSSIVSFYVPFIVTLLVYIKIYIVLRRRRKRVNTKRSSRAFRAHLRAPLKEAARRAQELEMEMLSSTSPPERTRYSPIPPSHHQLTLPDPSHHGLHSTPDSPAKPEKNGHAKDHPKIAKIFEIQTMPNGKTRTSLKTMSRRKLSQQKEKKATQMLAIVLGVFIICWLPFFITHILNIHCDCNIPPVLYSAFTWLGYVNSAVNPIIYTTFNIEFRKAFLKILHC
Experimental: For dopamine receptor binding, membranes (D-179, RBI/Sigma) are diluted into binding buffer (75 mM Tris pH 7.4, 12.5 mM MgCl2 and 2 mM EDTA). For example, 10 μl of membranes are diluted in 500 μl of binding buffer (i.e., 1:50 dilution), which is aliquoted into labelled tubes. Cold competitor or test competitor is added, (e.g., 5 μl of 100× stock solution; 5 μl of 1 mM haloperidol solution (H-100, RBI/Sigma in DMSO). Radioligand is then added (3H-Spiperone, TRK 818, Amersham, 250 μCi in 250 μl, 10.5 μM at 95 Ci/mmol). For competition studies, 0.5 nM is used. A 100× stock (i.e., 50 nM) is made by diluting the commercial stock 1:210 in binding buffer, and 5 μl is added to every tube. Control tubes have radioligand but no membranes. The mixtures are vortexed, then spun very briefly. The mixtures are then incubated for 1 hour at 27° C. in a water bath. The mixture is filtered through GF/C filters over a vacuum. Each filter is pre-soaked in polyethyleneimine (0.3% in water; add 1 ml of 10% stock (P-261; RBI/Sigma) to 33 ml of MilliQ water). The tubes are washed with 2-3 ml of wash buffer (50 mM Tris pH 7.4) and the wash filtered. The filters are then rinsed with 3×5 ml of wash buffer, air dried, placed in a scintillation vial and 4.5 ml of scintillant added. The activity on the filter is then determined.

[3] = test system: α2-adrenoceptors; assay: α2-adrenoreceptor membrane binding (3H-RS-79948-197)
[4] = target: T2, CCR5 (Homo sapiens, UniProt P51681); assay: Scatchard analysis of labeled RANTES binding to CCR5 HOS cells; details: 4° C., 2 hours, read-out: affinity of RANTES binding sites
T2 construct: host or cells: HOS cells
T2 sequence (P51681 whole entry): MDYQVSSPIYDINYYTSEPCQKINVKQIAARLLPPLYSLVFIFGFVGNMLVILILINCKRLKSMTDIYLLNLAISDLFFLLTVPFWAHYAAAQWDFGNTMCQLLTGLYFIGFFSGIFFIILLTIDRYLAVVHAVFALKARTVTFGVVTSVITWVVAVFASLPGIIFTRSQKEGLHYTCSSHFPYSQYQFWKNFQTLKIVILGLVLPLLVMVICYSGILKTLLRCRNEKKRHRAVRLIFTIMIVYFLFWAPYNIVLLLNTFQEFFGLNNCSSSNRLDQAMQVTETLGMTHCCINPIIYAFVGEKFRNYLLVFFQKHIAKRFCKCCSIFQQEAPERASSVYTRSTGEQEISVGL
Experimental: To establish the kinetics of labeled RANTES binding to CCR5, CCR5 cells and their parental line were exposed to labeled RANTES at 0.05 nM in the absence or presence of a 500-fold excess of unlabeled RANTES. Binding was performed at either 4° C. or room temperature for various periods between 30 minutes and 4 hours. All data was collected in triplicate. Equilibrium was achieved slightly quicker at room temperature than 4° C., and that in both cases binding was complete by 2 hours (FIG. 22A). […] Based on this experiment, all binding experiments were done at 4° C. for 2 hours.
A Scatchard analysis was performed under the conditions determined to represent equilibrium binding. The purpose of this experiment was to estimate the number of high affinity binding sites (CCR5 receptors) on the cell surface, since the full Scatchard analysis is performed under conditions where the binding was limited by availability of binding sites, not by number of molecules RANTES added. The result indicated about 80,000 binding sites per cell on the parental line and about 200,000-400,000 binding sites per cell on the high expressing CCR5 line. Using this information, the conditions necessary to perform a full 12-point Scatchard analysis at equilibrium, limited by binding site number, were calculated. […]

[5] = target: T3, Duffy Antigen Receptor for Chemokines (DARC) (Homo sapiens, UniProt Q16570); assay: DARC binding: competition with 125I-MCP-1 on red blood cells
T3 sequence (Q16570 1-336): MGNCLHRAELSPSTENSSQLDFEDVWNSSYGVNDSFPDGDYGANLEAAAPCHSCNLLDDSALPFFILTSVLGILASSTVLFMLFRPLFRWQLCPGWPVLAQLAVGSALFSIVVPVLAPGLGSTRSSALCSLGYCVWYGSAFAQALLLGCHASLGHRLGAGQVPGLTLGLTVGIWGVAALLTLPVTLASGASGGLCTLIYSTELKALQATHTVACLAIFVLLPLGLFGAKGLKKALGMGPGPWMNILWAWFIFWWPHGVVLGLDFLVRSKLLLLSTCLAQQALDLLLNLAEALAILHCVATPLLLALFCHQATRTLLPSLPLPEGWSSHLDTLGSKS

[6] = test system: MIP1α induced THP-1 migration; assay: THP-1 trans-well migration assay, MIP1α as chemoattractant; type: cell-based, human; details: ns = not significantly different from control
How it was run: as §1

[7] = test system: SDF-1α induced THP-1 migration; assay: THP-1 trans-well migration assay, SDF-1α as chemoattractant; type: cell-based, human; details: ns = not significantly different from control
How it was run: as §1

[8] = target: CCR5/CXCR4; assay: Affinity for CCR5/CXCR4; type: binding; details: read-out: affinity constant for CCR5/CXCR4
[9] = test system: gp120; details: ns = not significantly different from control; >100 = ED50 not determined
[10] = test system: HIV; type: cell-based; details: ns = not significantly different from control
[11] = mouse, in vivo, sc
[12] = rat, in vivo

Molecule: RANTES
pKd [4]: ~9.00

Molecule: Vaekpcksstirrys (V[dA][dE][dK][dP][dC][dK][dS][dS][dT][dI][dR][dR][dY][dS]) [LRD peptide 2(1-15)[MCP-1]]
decrease in Duffy binding relative to the LFL peptide [5]: ~100 fold | association (affinity) constant for DARC ([5]; red blood cells): 25 µM | MIPIa ED-50 [6]: ns | MCP-1 ED-50 ([1]; ns = not significantly different from control): ns | SDF1a ED-50 [7]: ns | pKd [8]: ≥ 7.00 | gp120 ED-50 [9]: 3 µM | % virus inhibition [10]: 72%

Molecule: ^3H-CRD-L-Leu4Ile11Cys13 peptide 3(3-12)[MCP-1]: diastereomer of CRD-Leu4Ile11Cys13 peptide 3(3-12)[MCP-1] with L-leucine instead of D-leucine ([dC][dQ][dI][dW][dK][dQ][dK][dP][dD]L[dC]-NH2; disulfide 1-11; also: 3H-labelled, site not given here)
average serum concentration at 30 minutes post injection [11]: 503 ng/g | A [12]: A: 48.88 μg/mL | AUC [12]: 31430 ng·h/mL | B [12]: B: 63.64 μg/mL | Maximal concentration [12]: 1,710 ng mL^−1 | Maximal concentration/dose [12]: 0.000017 | Vd [12]: 0.36 L/kg | dose accounted for in the 25 tissues and organs assayed at 3 hours post injection [12]: about 11 % i.d. | dose excreted in urine over the first 2 hours [12]: > 80 % i.d. | injected radioactivity in the urine with a mass consistent with the intact, cyclized structure [12]: > 80% | serum concentration at 30 minutes [12]: 591 ng/g | share of the total counts in the unwashed cell pellet at 10 minutes [12]: < 12% | α [12]: α: 9.59 | β [12]: β: 2.42 | dose eliminated in the urine over the first 4 hours ([12]; iv): 86.6+/−16.5 % i.d. | injected dose present in blood by four hours post injection ([12]; iv): about 0.1% | serum concentration at 10 minutes post injection, females ([12]; iv): 1238 ± 138 ng/mL | serum concentration at 10 minutes post injection, males ([12]; iv): 1141 ± 283 ng/mL | serum level at 10 minutes, females ([12]; iv): 12.45±1.39 % of the injected dose | serum level at 10 minutes, males ([12]; iv): 14.38±3.46 % i.d. | Elimination half-life ([12]; iv, 100 ug): 11.4 min | alpha-phase T1/2 ([12]; iv, 100 ug): 4.2 min | beta-phase T1/2 ([12]; iv, 100 ug): 17.4 min | dose remaining in the blood by 2 hours ([12]; iv, 2 h): less than 1 % i.d. | activity in the MCP-1 induced THP-1 migration assay, in words [1]: retained functional activity

Continued, in another order:

pEC50 ([1]; THP-1, agent with the cells in the upper compartment, n.s. = no statistically significant inhibition (p > 0.05), read-out: ED50 versus MCP-1, inhibition of THP-1 migration): ~4.30 | pIC50 [2]: < 4.00
Molecule: O=C1CCC(N2C(=O)c3ccccc3C2=O)C(=O)N1 (stereo not drawn) [Thalidomide, reference compound]
activity in the MCP-1 induced THP-1 migration assay, in words [1]: at 100 μM also inhibited THP-1 migration induced by MCP-1

pEC50 ([1]; THP-1, read-out: ED50 versus MCP-1 induced chemotaxis of THP-1): 9.30 | selectivity for chemokine inhibition of alpha-adrenoreceptor binding [3]: 1,500 fold
Molecule: NC(=O)C1C(O)CCC2CN3CCc4c([nH]c5ccccc45)C3CC21 (stereo not drawn) [Y-II, Yohimban-17-amide]

Reference: patent US7989466B2, “Methods to inhibit or augment an inflammatory response” (Cambridge Enterprise Limited, priority 1999, dated 2011)
